Paper PMC8330776 (Emerging Microbes & Infections, 2021)

Target: SARS-CoV-2 S trimer (SARS-CoV-2, UniProt P0DTC2)
Experiment: SPR
Settings: both partners purified

B1: wheat germ agglutinin (natural protein)
chain: QRCGEQGSNMECPNNLCCSQYGYCGMGGDYCGKGCQNGACWTSKRCGSQAGGATCTNNQCCSQYGYCGFGAEYCGAGCQGGPCRADIKCGSQAGGKLCPNNLCCSQWGFCGLGSEFCGGGCQSGACSTDKPCGKDAGGRVCTNNYCCSKWGSCGIGPGYCGAGCQSGGCDG
B1 showed a Kd of 1.5 nM, a koff of 0.00482 s⁻¹ and a kon of 3.21e+06 M⁻¹ s⁻¹.
